Test results published in patent publication US20100261647A1 (ARMAGEN TECHNOLOGIES, published 2010).

Columns and labels:
[1] = biological target: T1, human insulin receptor extracellular domain (HIR ECD) (human, UniProt P06213 28-956, limits assumed); assay: ELISA on plated HIR ECD, detection with biotinylated goat anti-human IgG (H+L)
T1 construct: extracellular domain
Description: CHO cells permanently transfected with the HIR ECD were grown in serum free media (SFM), and the HIR ECD was purified with a wheat germ agglutinin affinity column.

[2] = biological target: T1, human insulin receptor extracellular …; assay: competitive ligand binding assay, displacement of [125I]-murine HIRMAb from plated HIR ECD, Scatchard analysis
Description: CHO cells transfected with the HIR ECD were grown in serum free media (SFM), and the HIR ECD was purified with a wheat germ agglutinin affinity column.

B1: chimeric HIRMAb (chimeric monoclonal antibody against the human insulin receptor) (antibody, human IgG1, kappa, V domains shown)
VH: QVQLQQSGPELVKPGALVKISCKASGYTFTNYDIHWVKQRPGQGLEWIGWIYPGDGSTKYNEKFKGKATLTADKSSSTAYMHLSSLTSEKSAVYFCAREWAYWGQGTLVTVSA
VL: DIQMTQSPSSLSASLGERVSLTCRASQDIGGNLYWLQQGPDGTIKRLIYATSSLDSGVPKRFSGSRSGSDYSLTISSLESEDFVDYYCLQYSSSPWTFGGGTKMEIKR
notes: Chimeric human IgG1/kappa
EC50 [1]: 0.21 nM
Ki [2]: 0.63 nM
